Positions count from the first letter of the chain named. In names and notes the source's numbering stands.
B1: FKF1 28–174 (FLAVIN-BINDING, KELCH REPEAT, F-BOX 1 LOV domain) (domain or fragment, Arabidopsis thaliana, UniProt Q9C9W9 28-174, looked up)
chain: NDGIEEQVEDEKLPLEVGMFYYPMTPPSFIVSDALEPDFPLIYVNRVFEVFTGYRADEVLGRNCRFLQYRDPRAQRRHPLVDPVVVSEIRRCLEEGIEFQGELLNFRKDGTPLVNRLRLAPIRDDDGTITHVIGIQVFSETTIDLDR
notes: source: purified protein
B2: ZTL 16–165 (domain or fragment, Arabidopsis thaliana, UniProt Q94BT6 16-165, looked up)
chain: SLADDEEGGLFPGGGPIPYPVGNLLHTAPCGFVVTDAVEPDQPIIYVNTVFEMVTGYRAEEVLGGNCRFLQCRGPFAKRRHPLVDSMVVSEIRKCIDEGIEFQGELLNFRKDGSPLMNRLRLTPIYGDDDTITHIIGIQFFIETDIDLGP
notes: source: purified protein
B3: WT ZTL 29–165 (ZEITLUPE LOV domain construct ZTL-S) (domain or fragment, Arabidopsis thaliana, UniProt Q94BT6 29-165, looked up)
chain: GGPIPYPVGNLLHTAPCGFVVTDAVEPDQPIIYVNTVFEMVTGYRAEEVLGGNCRFLQCRGPFAKRRHPLVDSMVVSEIRKCIDEGIEFQGELLNFRKDGSPLMNRLRLTPIYGDDDTITHIIGIQFFIETDIDLGP
notes: also called ZTL LOV domain
B4: ZTL 29–165 R95A (domain or fragment, Arabidopsis thaliana, UniProt Q94BT6 29-165, looked up)
chain: B3 chain with R67A
B5: ZTL 29–165 G80R (domain or fragment, Arabidopsis thaliana, UniProt Q94BT6 29-165, looked up)
chain: B3 chain with G52R
notes: Tested by SEC in dark and light state
B6: ZTL 29–165 G46S:G80R (domain or fragment, Arabidopsis thaliana, UniProt Q94BT6 29-165, looked up)
chain: B3 chain with G18S, G52R
B7: ZTL 29–165 V48I:G80R (domain or fragment, Arabidopsis thaliana, UniProt Q94BT6 29-165, looked up)
chain: B3 chain with V20I, G52R
notes: Crystallised in the dark state (5SVV) and in the light state with the C4a adduct between C82 and FMN (5SVW)

How the values were obtained:
[1] = biological target: the molecule itself; assay: SEC; Superdex 200 10/300 analytical column in stabilizing buffer (50 mM Tris pH 7 or 50 mM Hepes pH 8 with 100 mM and 10% glycerol); apparent MW against standards; G80R in dark and light state
[2] = biological target: the molecule itself; assay: SEC; R95A at 130 µM and 13 µM, dark and light state; elution not concentration dependent; dimer to monomers

Protein | stoichiometry N [1] | Kd [2] | stoichiometry N [2]
B1 | 2 |  | 
B2 | 2 |  | 
B3 | 2 |  | 
B4 |  | < 200 nM | 2
B5 | 2 |  | 
B6 | 2 |  | 
B7 | 2 |  | 
